Positions count from the first letter of the chain named.
B1: hIFNγRα(33-239).TG.hIFNγRβ.SG.hFc (Fc fusion, not shown: a dimerising Fc or GST)
chain: TNVTIESYNMNPIVYWEYQIMPQVPVFTVEVKNYGVKNSEWIDACINISHHYCNISDHVGDPSNSLWVRVKARVGQKESAYAKSEEFAVCRDGKIGPPKLDIRKEEKQIMIDIFHPSVFVNGDEQEVDYDPETTCYIRVYNVYVRMNGSEIQYKILTQKEDDCDEIQCQLAIPVSSLNSQYCVSAEGVLHVWGVTTEKSKEVCITIFTGSQLPAPQHPKIRLYNAEQVLSWEPVALSNSTRPVVYQVQFKYTDSKWFTADIMSIGVNCTQITATECDFTAASPSAGFPMDFNVTLRLRAELGALHSAWVTMPWFQHYRNVTVGPPENIEVTPGEGSLIIRFSSPFDIADTSTAFFCYYVHYWEKGGIQQVKGPFRSNSISLDNLKPSRVYCLQVQAQLLWNKSNIFRVGHLSNISCYETMADASTELQSG
B2: hIFNγRα(24-239).SG.hFc (Fc fusion, not shown: a dimerising Fc or GST)
chain: LGPSSVPTPTNVTIESYNMNPIVYWEYQIMPQVPVFTVEVKNYGVKNSEWIDACINISHHYCNISDHVGDPSNSLWVRVKARVGQKESAYAKSEEFAVCRDGKIGPPKLDIRKEEKQIMIDIFHPSVFVNGDEQEVDYDPETTCYIRVYNVYVRMNGSEIQYKILTQKEDDCDEIQCQLAIPVSSLNSQYCVSAEGVLHVWGVTTEKSKEVCITIFSG
B3: hIFNγRα(24-239).TG.hFc.ARA.hIFNγRβ (Fc fusion, not shown: a dimerising Fc or GST)
chain (part 1 of 2): B2 chain with S217T
chain (part 2 of 2): ARASQLPAPQHPKIRLYNAEQVLSWEPVALSNSTRPVVYQVQFKYTDSKWFTADIMSIGVNCTQITATECDFTAASPSAGFPMDFNVTLRLRAELGALHSAWVTMPWFQHYRNVTVGPPENIEVTPGEGSLIIRFSSPFDIADTSTAFFCYYVHYWEKGGIQQVKGPFRSNSISLDNLKPSRVYCLQVQAQLLWNKSNIFRVGHLSNISCYETMADASTELQ
B4: hIFNγRα(23-239).TG.hIFNγRβ.SG.hFc (Fc fusion, not shown: a dimerising Fc or GST)
chain: DLGPSSVPTPTNVTIESYNMNPIVYWEYQIMPQVPVFTVEVKNYGVKNSEWIDACINISHHYCNISDHVGDPSNSLWVRVKARVGQKESAYAKSEEFAVCRDGKIGPPKLDIRKEEKQIMIDIFHPSVFVNGDEQEVDYDPETTCYIRVYNVYVRMNGSEIQYKILTQKEDDCDEIQCQLAIPVSSLNSQYCVSAEGVLHVWGVTTEKSKEVCITIFTGSQLPAPQHPKIRLYNAEQVLSWEPVALSNSTRPVVYQVQFKYTDSKWFTADIMSIGVNCTQITATECDFTAASPSAGFPMDFNVTLRLRAELGALHSAWVTMPWFQHYRNVTVGPPENIEVTPGEGSLIIRFSSPFDIADTSTAFFCYYVHYWEKGGIQQVKGPFRSNSISLDNLKPSRVYCLQVQAQLLWNKSNIFRVGHLSNISCYETMADASTELQSG
B5: hIFNγRα(23-239).SG.hFc (Fc fusion, not shown: a dimerising Fc or GST)
chain: DLGPSSVPTPTNVTIESYNMNPIVYWEYQIMPQVPVFTVEVKNYGVKNSEWIDACINISHHYCNISDHVGDPSNSLWVRVKARVGQKESAYAKSEEFAVCRDGKIGPPKLDIRKEEKQIMIDIFHPSVFVNGDEQEVDYDPETTCYIRVYNVYVRMNGSEIQYKILTQKEDDCDEIQCQLAIPVSSLNSQYCVSAEGVLHVWGVTTEKSKEVCITIFSG
B6: hIFNγRα(23-239).TG.hFc.ARA.hIFNγRβ (Fc fusion, not shown: a dimerising Fc or GST)
chain (part 1 of 2): B5 chain with S218T
chain (part 2 of 2): B3 chain (part 2 of 2)
B7: hIFNγRα(24-239).TG.hIFNγRβ.SG.hFc (Fc fusion, not shown: a dimerising Fc or GST)
chain: LGPSSVPTPTNVTIESYNMNPIVYWEYQIMPQVPVFTVEVKNYGVKNSEWIDACINISHHYCNISDHVGDPSNSLWVRVKARVGQKESAYAKSEEFAVCRDGKIGPPKLDIRKEEKQIMIDIFHPSVFVNGDEQEVDYDPETTCYIRVYNVYVRMNGSEIQYKILTQKEDDCDEIQCQLAIPVSSLNSQYCVSAEGVLHVWGVTTEKSKEVCITIFTGSQLPAPQHPKIRLYNAEQVLSWEPVALSNSTRPVVYQVQFKYTDSKWFTADIMSIGVNCTQITATECDFTAASPSAGFPMDFNVTLRLRAELGALHSAWVTMPWFQHYRNVTVGPPENIEVTPGEGSLIIRFSSPFDIADTSTAFFCYYVHYWEKGGIQQVKGPFRSNSISLDNLKPSRVYCLQVQAQLLWNKSNIFRVGHLSNISCYETMADASTELQSG

What follows are binders tested against human interferon γ (human) (UniProt P01579) (assay: cell-based or functional assay).
Chain of human interferon γ (human) (P01579 24-166 limits assumed): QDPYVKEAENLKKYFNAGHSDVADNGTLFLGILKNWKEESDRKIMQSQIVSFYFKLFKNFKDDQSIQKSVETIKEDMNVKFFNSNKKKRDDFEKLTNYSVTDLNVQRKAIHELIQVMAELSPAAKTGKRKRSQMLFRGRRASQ

Binder	IC50 (M), GAS-luciferase bioassay in HEK293 cells	IC50 (M), ISRE-luciferase bioassay in HEK293 cells
B1	1.3e-08 M	2.4e-07 M
B2	2.1e-08 M	1.2e-08 M
B3	1.1e-08 M	6e-09 M
B4	1.9e-10 M	5.3e-11 M
B5	4.6e-09 M	2.57e-09 M
B6	1e-09 M	7.9e-10 M
B7	3.2e-09 M	1.3e-09 M

From US20070020283A1
